Measured values: PMC11533912 (Journal of Nuclear Medicine, 2024)
“Also recorded” adds a separate entry of the source.

How the values were obtained:
[1] = Toxicity (dose escalation) study in tumor-free nude mice
Method: Control mice received buffer only. Animals were weighed 3 times per week and monitored daily for signs of pain or distress over a 4-wk period after the last injection. Blood was sampled via the submandibular vein using potassium–ethylenediaminetetraacetic acid capillaries and tubes (Greiner Bio-One), and complete cell blood counts were performed using a VETSCAN HM5 hematology analyzer (Abaxis/Zoetis). Animals were euthanized at the scheduled termination or when the termination criteria were met.
Mice were euthanized when tumor volumes reached 1,000 mm^3 (length × width × height) or other predetermined termination criteria were met (weight loss > 15% for 2 consecutive days or 20% weight loss from initial weight, serious bleeding, necrosis or ulceration of the tumor, scruffiness or lack of grooming over 5 d, lethargy over 3 d, weakness/balance issues over 5 d, hunchback appearance, diarrhea, or hypothermia).

[2] = Biodistribution at different specific activity (28, 140, 280 ng peptide); type: in vivo, PC-3 tumor-bearing mice
Method: For all tumor studies, 1 × 10^6 PC-3 cells were implanted subcutaneously into the right flank of each mouse in a mixture of equal volumes of HC-Matrigel (high concentration; Corning) and RPMI medium (Gibco) and grown to a volume of about 200–300 mm^3.
PC-3 tumors were grown in male mice until an approximate tumor volume of 300 mm^3 was reached. […] The background was automatically subtracted from the counts. A standard was also used for decay correction, and the percent injected dose (%ID) per gram of tissue was calculated for each organ collected.
FIGURE 3. In vivo distribution of [^212Pb]Pb-DOTAM-GRPR1. (A) In athymic nude male mice carrying subcutaneous PC-3 tumors, 370 kBq of drug were administered and organs were collected from 5 mice per time point: 1, 4, and 24 h after injection. (B) At different specific activity in PC-3 tumor-bearing mice, 370 kBq per 28, 140, or 280 ng of DOTAM-GRPR1 were administered and organs were collected from 5 mice per time point: 1, 4, and 24 h after injection. Tissue uptake is expressed as %ID/g ± SD (n = 5). All tissues with uptake below 2% at 1 h were excluded from graph. ***P = 0.00013 between 280 ng of pancreas and 28 ng of pancreas.

[3] = 370 kBq per 28, 140 or 280 ng DOTAM-GRPR1, PC-3 tumor-bearing mice

## CC(C)C[C@H](NC(=O)C[C@H](O)[C@H](CC(C)C)NC(=O)[C@H](Cc1c[nH]cn1)NC(=O)CNC(=O)[C@@H](NC(=O)[C@H](C)NC(=O)[C@H](Cc1c[nH]c2ccccc12)NC(=O)[C@H](CCC(N)=O)NC(=O)[C@@H](Cc1ccccc1)NC(=O)CCNC(=O)CCNC(=O)CN1CCN(CC(N)=O)CCN(CC(N)=O)CCN(CC(N)=O)CC1)C(C)C)C(N)=O [[^212Pb]Pb-DOTAM-GRPR1, metal not drawn]
[1]; 1,665 kBq, 30 d, athymic nude male mice
  Hematologic toxicity or weight loss: no hematologic toxicity or weight loss
[1]; 1,665 kBq, full 30-d period, athymic nude male mice
  Survival in acute toxicity study: all animals survived for the full 30-d period
[1]; all groups, male athymic nude mice
  Histopathologic examination: all groups were essentially within the normal limits
[1]; doses used, 370–1,665 kBq single or 3 × 370 or 555 kBq, male athymic nude mice
  Tolerability / signs of radiation or lead injury: well tolerated at the doses used, with no signs of radiation or lead injury
[1]; highest dose: single 1,665 kBq or 3 fractionated doses of 555 kBq, tumor-free nude male mice
  Body weight loss: body weight loss was minimal after administration and was followed by body weight gain
[1]; histopathology, male athymic nude mice
  Kidneys, gastrointestinal mucosa, bone marrow and other organs: unremarkable
[1]; male athymic nude mice, intravenous
  Toxic dose: more than 1,665 kBq
[1]; up to, mice, intravenous
  Nontoxic dose: up to 1,665 kBq
[2]; [3]
  Effect of low specific activity on tumor uptake: did not negatively impact tumor uptake
  Effect of lowering specific activity on off-target accumulation: low specific activity reduced off-target accumulation; also recorded: further reduced off-target accumulation, especially in the pancreas
[2]; 370 kBq per 28 vs 280 ng DOTAM-GRPR1, PC-3 tumor-bearing mice, n = 5 per time point, P = 0.00013
  Reduction of pancreatic uptake on increasing peptide amount from 28 to 280 ng: about 30%
